Laboratory results published in article PMC2116009 (The Journal of Cell Biology, 1990).

Molecular target: chicken transferrin receptor, endogenous on chicken embryo fibroblasts (chicken (endogenous in CEF), UniProt Q90997 1-776)
Experiment: radioligand binding

Sequence of chicken transferrin receptor, endogenous on chicken embryo fibroblasts (Q90997 whole entry): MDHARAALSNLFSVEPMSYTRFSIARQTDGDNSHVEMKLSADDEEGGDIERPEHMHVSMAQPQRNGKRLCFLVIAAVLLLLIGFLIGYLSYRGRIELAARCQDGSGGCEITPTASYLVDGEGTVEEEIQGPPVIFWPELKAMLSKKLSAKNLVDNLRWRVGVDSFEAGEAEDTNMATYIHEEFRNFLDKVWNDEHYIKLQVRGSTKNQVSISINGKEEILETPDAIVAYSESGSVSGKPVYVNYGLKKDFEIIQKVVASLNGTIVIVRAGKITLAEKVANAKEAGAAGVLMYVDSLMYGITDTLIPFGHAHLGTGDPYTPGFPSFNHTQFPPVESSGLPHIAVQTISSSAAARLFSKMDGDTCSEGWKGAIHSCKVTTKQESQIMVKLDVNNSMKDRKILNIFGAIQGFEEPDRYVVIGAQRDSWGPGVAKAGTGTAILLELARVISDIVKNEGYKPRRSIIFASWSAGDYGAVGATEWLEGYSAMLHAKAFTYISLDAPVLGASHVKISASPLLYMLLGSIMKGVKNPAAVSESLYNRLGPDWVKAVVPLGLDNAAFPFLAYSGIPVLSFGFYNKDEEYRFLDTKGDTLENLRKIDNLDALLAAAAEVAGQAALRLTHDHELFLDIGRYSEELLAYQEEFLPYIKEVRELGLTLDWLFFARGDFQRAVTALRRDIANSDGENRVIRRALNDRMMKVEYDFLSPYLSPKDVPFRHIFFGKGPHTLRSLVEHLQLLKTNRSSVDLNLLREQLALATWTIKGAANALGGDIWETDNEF

B1: ovotransferrin (ligand)
chain: APPKSVIRWCTISSPEEKKCNNLRDLTQQERISLTCVQKATYLDCIKAIANNEADAISLDGGQAFEAGLAPYKLKPIAAEVYEHTEGSTTSYYAVAVVKKGTEFTVNDLQGKTSCHTGLGRSAGWNIPIGTLLHRGAIEWEGIESGSVEQAVAKFFSASCVPGATIEQKLCRQCKGDPKTKCARNAPYSGYSGAFHCLKDGKGDVAFVKHTTVNENAPDQKDEYELLCLDGSRQPVDNYKTCNWARVAAHAVVARDDNKVEDIWSFLSKAQSDFGVDTKSDFHLFGPPGKKDPVLKDLLFKDSAIMLKRVPSLMDSQLYLGFEYYSAIQSMRKDQLTPSPRENRIQWCAVGKDEKSKCDRWSVVSNGDVECTVVDETKDCIIKIMKGEADAVALDGGLVYTAGVCGLVPVMAERYDDESQCSKTDERPASYFAVAVARKDSNVNWNNLKGKKSCHTAVGRTAGWVIPMGLIHNRTGTCNFDEYFSEGCAPGSPPNSRLCQLCQGSGGIPPEKCVASSHEKYFGYTGALRCLVEKGDVAFIQHSTVEENTGGKNKADWAKNLQMDDFELLCTDGRRANVMDYRECNLAEVPTHAVVVRPEKANKIRDLLERQEKRFGVNGSEKSKFMMFESQNKDLLFKDLTKCLFKVREGTTYKEFLGDKFYTVISSLKTCNPSDILQMCSFLEGK
Binder B1 has a Kd of ~100 nM.
